According to paper PMC9352680, “A comprehensive thermodynamic model for RNA binding by the Saccharomyces cerevisiae Pumilio protein PUF4”:

The binders below were run against T1, PUF4 RNA-binding domain (Saccharomyces cerevisiae, UniProt P25339 537-888) (assay: Mg; RNA-MaP; 20 mM Na-HEPES pH 7.4, 30 mM KOAc, 0.75 mM MgCl2, 0.1% Tween-20, 5% glycerol, 0.1 mg/mL BSA, 2 mM DTT; 25 C; 0.0125-409.6 nM protein). Settings: tags: N-His6-TEV cleaved; C-SNAP kept, Cy3B-labelled; label: tethered on chip by stalled RNA polymerase.
T1 sequence: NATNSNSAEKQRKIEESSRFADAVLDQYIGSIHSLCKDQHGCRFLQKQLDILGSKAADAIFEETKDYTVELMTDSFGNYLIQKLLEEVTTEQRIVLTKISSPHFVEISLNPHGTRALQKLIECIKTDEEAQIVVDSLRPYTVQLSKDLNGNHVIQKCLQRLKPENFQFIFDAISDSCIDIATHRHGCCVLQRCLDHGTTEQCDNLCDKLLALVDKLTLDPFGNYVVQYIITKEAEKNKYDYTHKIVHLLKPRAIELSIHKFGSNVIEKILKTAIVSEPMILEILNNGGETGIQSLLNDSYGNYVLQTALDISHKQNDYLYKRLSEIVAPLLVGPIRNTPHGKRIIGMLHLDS

Binder	Kd [nM]
UCUCUUUGUAUCCGUGUCUCUU (ssRNA) [Ic_S1_P5E.1_K5.1_C5.1_H5.1_A5.1_[T6C]_[A7C]_F5.1_[T8G]_[A10G]_T5.1]	1060
UCUCUUUGUACCAUACUCUCUU (ssRNA) [Ic_S1_P5E.1_K5.1_C5.1_H5.1_A5.1_[T5C]_[T6C]_F5.1_[T9A]_[A10C]_T5.1]	1.59
UCUCUUUGUAAUACUUUCUCUU (ssRNA) [Ic_S1_P5E.1_K5.1_C5.1_H5.1_A5.1_[T5A]_F5.1_[T8C]_[A10T]_T5.1]	212
UCUCUUUGUAACAGCCUCUCUU (ssRNA) [Ic_S1_P5E.1_K5.1_C5.1_H5.1_A5.1_[T5A]_[T6C]_F5.1_[T8G]_[T9C]_[A10C]_T5.1]	1140
UCUCUUUGUAUUUUUCUCUU (ssRNA) [Ib_S1_P3E.1_K3.1_C3.1_H3.1_A3.1_[A6T]_F3.1_[A8T]_T3.1]	26.1
UCUCUUUGUAUCUUUCUCUU (ssRNA) [Ic_S1_P3E.1_K3.1_C3.1_H3.1_A3.1_[A6C]_F3.1_[A8T]_T3.1]	32.3
UCUCUUUGUAUACUACUCUCUU (ssRNA) [Ic_S1_P5E.1_K5.1_C5.1_H5.1_A5.1_[T6A]_[A7C]_F5.1_[T9A]_[A10C]_T5.1]	2.89
UCUCUUUGUAUUGUCUUCUCUU (ssRNA) [Ic_S1_P5E.1_K5.1_C5.1_H5.1_A5.1_[A7G]_F5.1_[T9C]_[A10T]_T5.1]	101
UCUCUUUGUAAACGCCUCUCUU (ssRNA) [Ic_S1_P5E.1_K5.1_C5.1_H5.1_A5.1_[T5A]_[T6A]_[A7C]_F5.1_[T8G]_[T9C]_[A10C]_T5.1]	1060
UCUCUUUGUAAUUGCCUCUCUU (ssRNA) [Ic_S1_P5E.1_K5.1_C5.1_H5.1_A5.1_[T5A]_[A7T]_F5.1_[T8G]_[T9C]_[A10C]_T5.1]	645
UCUCUUUGUAACUGACUCUCUU (ssRNA) [Ic_S1_P5E.1_K5.1_C5.1_H5.1_A5.1_[T5A]_[T6C]_[A7T]_F5.1_[T8G]_[T9A]_[A10C]_T5.1]	448
UCUCUUUGUAAUUUUCUCUCUU (ssRNA) [Ic_S1_P5E.1_K5.1_C5.1_H5.1_A5.1_[T5A]_[A7T]_F5.1_[A10C]_T5.1]	29.8
UCUCUUUGUAUUUCGUUCUCUU (ssRNA) [Ic_S1_P5E.1_K5.1_C5.1_H5.1_A5.1_[A7T]_F5.1_[T8C]_[T9G]_[A10T]_T5.1]	370
UCUCUUUGUAUGGUAAUCUCUU (ssRNA) [Ic_S1_P5E.1_K5.1_C5.1_H5.1_A5.1_[T6G]_[A7G]_F5.1_[T9A]_T5.1]	32.1
UCUCUUUGUACCUGGCUCUCUU (ssRNA) [Ic_S1_P5E.1_K5.1_C5.1_H5.1_A5.1_[T5C]_[T6C]_[A7T]_F5.1_[T8G]_[T9G]_[A10C]_T5.1]	489
UCUCUUUGUAAGUUUGUCUCUU (ssRNA) [Ic_S1_P5E.1_K5.1_C5.1_H5.1_A5.1_[T5A]_[T6G]_[A7T]_F5.1_[A10G]_T5.1]	697
UCUCUUUGUAUGGCUGUCUCUU (ssRNA) [Ic_S1_P5E.1_K5.1_C5.1_H5.1_A5.1_[T6G]_[A7G]_F5.1_[T8C]_[A10G]_T5.1]	2120
UCUCUUUGUAAGUACGUCUCUU (ssRNA) [Ic_S1_P5E.1_K5.1_C5.1_H5.1_A5.1_[T5A]_[T6G]_[A7T]_F5.1_[T8A]_[T9C]_[A10G]_T5.1]	2240
UCUCUUUGUACUUCUAUCUCUU (ssRNA) [Ic_S1_P5E.1_K5.1_C5.1_H5.1_A5.1_[T5C]_[A7T]_F5.1_[T8C]_T5.1]	7.77
UCUCUUUGUAAGUAUAUCUCUU (ssRNA) [Ic_S1_P5E.1_K5.1_C5.1_H5.1_A5.1_[T5A]_[T6G]_[A7T]_F5.1_[T8A]_T5.1]	95

Binder	Kd [nM]
UCUCUUUGUACUUCAUUCUCUU (ssRNA) [Ic_S1_P5E.1_K5.1_C5.1_H5.1_A5.1_[T5C]_[A7T]_F5.1_[T8C]_[T9A]_[A10T]_T5.1]	75.9
UCUCUUUGUAAUCCUUUCUCUU (ssRNA) [Ic_S1_P5E.1_K5.1_C5.1_H5.1_A5.1_[T5A]_[A7C]_F5.1_[T8C]_[A10T]_T5.1]	697
UCUCUUUGUAGUAUAUUCUCUU (ssRNA) [Ic_S1_P5E.1_K5.1_C5.1_H5.1_A5.1_[T5G]_F5.1_[T9A]_[A10T]_T5.1]	8.21
UCUCUUUGUAUGUCCAUCUCUU (ssRNA) [Ic_S1_P5E.1_K5.1_C5.1_H5.1_A5.1_[T6G]_[A7T]_F5.1_[T8C]_[T9C]_T5.1]	363
UCUCUUUGUACCUGCCUCUCUU (ssRNA) [Ic_S1_P5E.1_K5.1_C5.1_H5.1_A5.1_[T5C]_[T6C]_[A7T]_F5.1_[T8G]_[T9C]_[A10C]_T5.1]	353
UCUCUUUGUACCUCGAUCUCUU (ssRNA) [Ic_S1_P5E.1_K5.1_C5.1_H5.1_A5.1_[T5C]_[T6C]_[A7T]_F5.1_[T8C]_[T9G]_T5.1]	660
UCUCUUUGUAUGGCAUUCUCUU (ssRNA) [Ic_S1_P5E.1_K5.1_C5.1_H5.1_A5.1_[T6G]_[A7G]_F5.1_[T8C]_[T9A]_[A10T]_T5.1]	1040
UCUCUUUGUAUACCACUCUCUU (ssRNA) [Ic_S1_P5E.1_K5.1_C5.1_H5.1_A5.1_[T6A]_[A7C]_F5.1_[T8C]_[T9A]_[A10C]_T5.1]	20.7
UCUCUUUGUAUAUAAAUCUCUU (ssRNA) [Ic_S1_P5E.1_K5.1_C5.1_H5.1_A5.1_[T6A]_[A7T]_F5.1_[T8A]_[T9A]_T5.1]	8.13
UCUCUUAGCAUAUAUCUCUU (ssRNA) [Ib_S1_P3E.1_K3.1_C3.1_H3.1_[T1A]_[T3C]_A3.1_F3.1_T3.1]	> 2300
UCUCUUUGUACUCCCAUCUCUU (ssRNA) [Ic_S1_P5E.1_K5.1_C5.1_H5.1_A5.1_[T5C]_[A7C]_F5.1_[T8C]_[T9C]_T5.1]	1300
UCUCUUUGUAUUCCCAUCUCUU (ssRNA) [Ic_S1_P5E.1_K5.1_C5.1_H5.1_A5.1_[A7C]_F5.1_[T8C]_[T9C]_T5.1]	587
UCUCUUUGUAUAUCAUCUCUU (ssRNA) [Ic_S1_P4E.1_K4.1_C4.1_H4.1_A4.1_F4.1_[T8C]_T4.1]	8.57
UCUCUUUGUACAAUUCUCUCUU (ssRNA) [Ic_S1_P5E.1_K5.1_C5.1_H5.1_A5.1_[T5C]_[T6A]_F5.1_[A10C]_T5.1]	12.1
UCUCUUUGUAAAAUUUUCUCUU (ssRNA) [Ic_S1_P5E.1_K5.1_C5.1_H5.1_A5.1_[T5A]_[T6A]_F5.1_[A10T]_T5.1]	23.8
UCUCUUUGUAAUAUAUUCUCUU (ssRNA) [Ic_S1_P5E.1_K5.1_C5.1_H5.1_A5.1_[T5A]_F5.1_[T9A]_[A10T]_T5.1]	2.21
UCUCUUUGUAAGUUGUUCUCUU (ssRNA) [Ic_S1_P5E.1_K5.1_C5.1_H5.1_A5.1_[T5A]_[T6G]_[A7T]_F5.1_[T9G]_[A10T]_T5.1]	495
UCUCUUUGUAAGCCAUUCUCUU (ssRNA) [Ic_S1_P5E.1_K5.1_C5.1_H5.1_A5.1_[T5A]_[T6G]_[A7C]_F5.1_[T8C]_[T9A]_[A10T]_T5.1]	317
UCUCUUUGUAUUGCCAUCUCUU (ssRNA) [Ic_S1_P5E.1_K5.1_C5.1_H5.1_A5.1_[A7G]_F5.1_[T8C]_[T9C]_T5.1]	955
UCUCUUUGUAAAUCACUCUCUU (ssRNA) [Ic_S1_P5E.1_K5.1_C5.1_H5.1_A5.1_[T5A]_[T6A]_[A7T]_F5.1_[T8C]_[T9A]_[A10C]_T5.1]	63.1

Binder	Kd [nM]
UCUCUUUGUAUGCAGUUCUCUU (ssRNA) [Ic_S1_P5E.1_K5.1_C5.1_H5.1_A5.1_[T6G]_[A7C]_F5.1_[T8A]_[T9G]_[A10T]_T5.1]	1990
UCUCUUUGUAUCGCCGUCUCUU (ssRNA) [Ic_S1_P5E.1_K5.1_C5.1_H5.1_A5.1_[T6C]_[A7G]_F5.1_[T8C]_[T9C]_[A10G]_T5.1]	> 2300
UCUCUUUGUAUCUAUCUCUCUU (ssRNA) [Ic_S1_P5E.1_K5.1_C5.1_H5.1_A5.1_[T6C]_[A7T]_F5.1_[T8A]_[A10C]_T5.1]	41.5
UCUCUUUGUAUGUCCUUCUCUU (ssRNA) [Ic_S1_P5E.1_K5.1_C5.1_H5.1_A5.1_[T6G]_[A7T]_F5.1_[T8C]_[T9C]_[A10T]_T5.1]	88.1
UCUCUUGUUAUAUAUCUCUU (ssRNA) [Ib_S1_P3E.1_K3.1_C3.1_H3.1_[T1G]_[G2T]_A3.1_F3.1_T3.1]	47
UCUCUUUGUAAGCUUUUCUCUU (ssRNA) [Ic_S1_P5E.1_K5.1_C5.1_H5.1_A5.1_[T5A]_[T6G]_[A7C]_F5.1_[A10T]_T5.1]	643
UCUCUUUGUACGUCAUUCUCUU (ssRNA) [Ic_S1_P5E.1_K5.1_C5.1_H5.1_A5.1_[T5C]_[T6G]_[A7T]_F5.1_[T8C]_[T9A]_[A10T]_T5.1]	96.5
UCUCUUUGUAGCAGCUUCUCUU (ssRNA) [Ic_S1_P5E.1_K5.1_C5.1_H5.1_A5.1_[T5G]_[T6C]_F5.1_[T8G]_[T9C]_[A10T]_T5.1]	> 2300
UCUCUUUGUACACCCCUCUCUU (ssRNA) [Ic_S1_P5E.1_K5.1_C5.1_H5.1_A5.1_[T5C]_[T6A]_[A7C]_F5.1_[T8C]_[T9C]_[A10C]_T5.1]	113
UCUCUUUGUAAGCUGCUCUCUU (ssRNA) [Ic_S1_P5E.1_K5.1_C5.1_H5.1_A5.1_[T5A]_[T6G]_[A7C]_F5.1_[T9G]_[A10C]_T5.1]	604
UCUCUUUGUACCCUAGUCUCUU (ssRNA) [Ic_S1_P5E.1_K5.1_C5.1_H5.1_A5.1_[T5C]_[T6C]_[A7C]_F5.1_[T9A]_[A10G]_T5.1]	4.32
UCUCUUUGUAUACGGUUCUCUU (ssRNA) [Ic_S1_P5E.1_K5.1_C5.1_H5.1_A5.1_[T6A]_[A7C]_F5.1_[T8G]_[T9G]_[A10T]_T5.1]	90.4
UCUCUUUGUACGAACCUCUCUU (ssRNA) [Ic_S1_P5E.1_K5.1_C5.1_H5.1_A5.1_[T5C]_[T6G]_F5.1_[T8A]_[T9C]_[A10C]_T5.1]	1700
UCUCUUUGUACGUAAUUCUCUU (ssRNA) [Ic_S1_P5E.1_K5.1_C5.1_H5.1_A5.1_[T5C]_[T6G]_[A7T]_F5.1_[T8A]_[T9A]_[A10T]_T5.1]	126
UCUCUUUGUAGUUAUUUCUCUU (ssRNA) [Ic_S1_P5E.1_K5.1_C5.1_H5.1_A5.1_[T5G]_[A7T]_F5.1_[T8A]_[A10T]_T5.1]	705
UCUCUUUGUACAUGUUUCUCUU (ssRNA) [Ic_S1_P5E.1_K5.1_C5.1_H5.1_A5.1_[T5C]_[T6A]_[A7T]_F5.1_[T8G]_[A10T]_T5.1]	27.2
UCUCUUGGCAUAUAUCUCUU (ssRNA) [Ib_S1_P3E.1_K3.1_C3.1_H3.1_[T1G]_[T3C]_A3.1_F3.1_T3.1]	> 2300
UCUCUUUGUACACCAUUCUCUU (ssRNA) [Ic_S1_P5E.1_K5.1_C5.1_H5.1_A5.1_[T5C]_[T6A]_[A7C]_F5.1_[T8C]_[T9A]_[A10T]_T5.1]	16.1
UCUCUUUGUAUAAAUCUCUU (ssRNA) [Ia_S1_P3E.1_K3.1_C3.1_H3.1_A3.1_F3.1_[T7A]_T3.1]	50.4
